Laboratory results from PMC5413351, “Structural basis of protein translocation by the Vps4-Vta1 AAA ATPase” (eLife, 2017).
Positions count from the first letter of the chain named.

B1: Vps4^81-437: Vps4 construct residues 81-437 (pET151-Vps4(81-437)) (protein, UniProt P52917 81-437, looked up, fragment)
chain: AAKKSPSAGSGSNGGNKKISQEEGEDNGGEDNKKLRGALSSAILSEKPNVKWEDVAGLEGAKEALKEAVILPVKFPHLFKGNRKPTSGILLYGPPGTGKSYLAKAVATEANSTFFSVSSSDLVSKWMGESEKLVKQLFAMARENKPSIIFIDEVDALTGTRGEGESEASRRIKTELLVQMNGVGNDSQGVLVLGATNIPWQLDSAIRRRFERRIYIPLPDLAARTTMFEINVGDTPCVLTKEDYRTLGAMTEGYSGSDIAVVVKDALMQPIRKIQSATHFKDVSTEDDETRKLTPCSPGDDGAIEMSWTDIEADELKEPDLTIKDFLKAIKSTRPTVNEDDLLKQEQFTRDFGQEGN
B2: Vps4^101-437: yeast Vps4 construct (residues 101–437) spanning the AAA ATPase cassette (protein, UniProt P52917 101-437, looked up, fragment)
chain: QEEGEDNGGEDNKKLRGALSSAILSEKPNVKWEDVAGLEGAKEALKEAVILPVKFPHLFKGNRKPTSGILLYGPPGTGKSYLAKAVATEANSTFFSVSSSDLVSKWMGESEKLVKQLFAMARENKPSIIFIDEVDALTGTRGEGESEASRRIKTELLVQMNGVGNDSQGVLVLGATNIPWQLDSAIRRRFERRIYIPLPDLAARTTMFEINVGDTPCVLTKEDYRTLGAMTEGYSGSDIAVVVKDALMQPIRKIQSATHFKDVSTEDDETRKLTPCSPGDDGAIEMSWTDIEADELKEPDLTIKDFLKAIKSTRPTVNEDDLLKQEQFTRDFGQEGN
B3: Vps4(101-437) L151D (protein)
chain: B2 chain with L51D
modifications: left off: 6xHis, N-terminal, cleaved
B4: Vps4 full-length: yeast AAA ATPase Vps4, full-length (pET151-Vps4) (protein)
chain 1: MSTGDFLTKGIELVQKAIDLDTATQYEEAYTAYYNGLDYLMLALKYEKNPKSKDLIRAKFTEYLNRAEQLKKHLESEEANAAKKSPSAGSGSNGGNKKISQEEGEDNGGEDNKKLRGALSSAILSEKPNVKWEDVAGLEGAKEALKEAVILPVKFPHLFKGNRKPTSGILLYGPPGTGKSYLAKAVATEANSTFFSVSSSDLVSKWMGESEKLVKQLFAMARENKPSIIFIDEVDALTGTRGEGESEASRRIKTELLVQMNGVGNDSQGVLVLGATNIPWQLDSAIRRRFERRIYIPLPDLAARTTMFEINVGDTPCVLTKEDYRTLGAMTEGYSGSDIAVVVKDALMQPIRKIQSATHFKDVSTEDDETRKLTPCSPGDDGAIEMSWTDIEADELKEPDLTIKDFLKAIKSTRPTVNEDDLLKQEQFTRDFGQEGN
chain 2: MASNAARVVATAKDFDKVGLGIIGYYLQLYAVELILSEEDRSQEMTALATELLDTIEAFKKEIGGESEAEDSDKSLHVMNTLIHDQEKAKIYMLNFTMSLYNEKLKQLKDGPWDVMLKRSLWCCIDLFSCILHLWKENISETSTNSLQKRIKYCKIYLSKLAKGEIGSSDEKTLDYADFADDSEEIKDEDVDHQTSDLENNNNDKVEGLAPKDQTTSYEPVDEVPEFIDDADSVNEEEQTVDKNEDAITKDEQQVVKKEVDLTRPSAPSEPAAAEHKSYTKDELTKIMDRASKIEQIQKLAKYAISALNYEDLPTAKDELTKALDLLNSI
modifications: left off: 6xHis, N-terminal, cleaved | 6xHis, N-terminal, cleaved

Assays:
[1] = ATPase assay (malachite green end-point); type: biochemical, S. cerevisiae; conditions: 1 mM ATP, 37°C, 5 min, pH 7.4, mean of all runs
Procedure: The rate of ATP hydrolysis was determined using an end-point method modified from Merrill and Hanson ([Merrill and Hanson, 2010]). Vps4 at the indicated subunit concentration was incubated with 1 mM ATP at 37°C in 20 mM HEPES/NaOH pH 7.4, 100 mM NaCl, 10 mM MgCl2, 1 mM DTT in a total volume of 10 µl. The hydrolysis reaction was stopped after 5 min by the addition of 100 µl of malachite green color reagent (14 mM ammonium molybdate, 1.3 M HCl, 1.5 mM malachite green) and 50 µl of 21% (w/v) citric acid. Absorbance at 650 nm was read using a Biotek Neo Synergy microplate reader and the amount of inorganic phosphate released by the reaction was determined using a sodium phosphate standard curve. Means and standard deviations reported in Figure 1D are from at least three independent experiments using different protein preparations with three or more technical replicates each.

Vps4^101-437 = target: T1, Vps4^101-437 (Saccharomyces cerevisiae, UniProt P52917, L151D); type: binding, S. cerevisiae; conditions: global fit of replicate titrations over [Vps4 monomer], uM, m1 = 1; L151D mutant; Std. Error 0.218; 95% CI (profile likelihood) 4.01 to 4.887; read-out: Kd (fit to normalized anisotropy data, best-fit value)
T1 construct: 6xHis (TEV-cleavable) (N, cleaved yes); made in house; host or cells: E. coli BL21(DE3)RIL
T1 sequence (P52917 101-437 L151D): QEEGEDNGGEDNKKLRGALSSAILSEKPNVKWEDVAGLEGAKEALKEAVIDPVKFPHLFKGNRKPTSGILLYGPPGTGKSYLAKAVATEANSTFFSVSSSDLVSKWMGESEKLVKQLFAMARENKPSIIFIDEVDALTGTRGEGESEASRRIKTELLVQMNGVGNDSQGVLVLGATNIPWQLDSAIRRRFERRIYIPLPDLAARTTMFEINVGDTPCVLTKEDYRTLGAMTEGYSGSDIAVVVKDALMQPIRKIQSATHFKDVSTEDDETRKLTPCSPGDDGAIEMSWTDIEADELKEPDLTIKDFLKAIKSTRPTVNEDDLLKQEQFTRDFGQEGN
Procedure: Fluorescence polarization assay for ESCRT-III peptide binding
When equilibrium was reached, parallel and perpendicular fluorescence intensities were measured on a Biotek Synergy Neo HTS microplate reader using an excitation wavelength of 485 nm and an emission wavelength of 528 nm.

| Molecule | ATPase activity, average ([1]; 0.05 μM Vps4 subunits) [ATP/min/Vps4 hexamer] | ATPase activity, average ([1]; 1 μM Vps4 subunits) [ATP/min/Vps4 hexamer] | Kd (Vps4^101-437) [µM] |
| --- | --- | --- | --- |
| B1 | -6.194 | 456.338 | – |
| B2 | -26.1936 | 418.838 | – |
| B3 | – | – | 4.43 |
| B4 | 19.8582 | 701.731 | – |
